Experimental data reported in article PMC12121997.

Experiments:
[1] = target: Nucleosome core particle: Cse4-containing histone octamer wrapped with Widom 601 DNA (S. cerevisiae | K. lactis) (UniProt P36012); assay: optical trap assay (bead-microtubule binding, then rupture force); 40 nM His6-NCPs held on anti-His6 polystyrene beads; 10 nM OA or 20 nM Mif2, 10 nM 2D-MIND, 10 nM Ndc80c and 5 nM Dam1c free in solution; bead brought by laser trap to the dynamic plus end of a surface-anchored microtubule; 1x BRB80, 1 mM GTP, 16 uM tubulin, room temperature; 1 pN preload, then ramping force until detachment; negative controls with OA or Mif2 omitted
[2] = target: Nucleosome core particle: Cse4-containing histone octamer wrapped with chimeric centromeric DNA (CCEN) (S. cerevisiae | K. lactis) (UniProt P36012); assay: as above

Question: What does the source list for “Mif2-linker-(27-392)MBP (from UniProt P35201 1-549) (natural protein)”?
Answer: percent of NCP-coated beads that bound microtubules [1]: > 78%; percent of NCP-coated beads that bound microtubules [2]: > 78%
